Source: IntAct's records for PubMed 25416956
One block for each substance: values may come before it.

Legend:
[1] = target: reep6_human REEP6 (UniProt Q96HR9)
[2] = target: praf1_human RABAC1 (UniProt Q9UI14)
[3] = target: ldaf1_human LDAF1 (UniProt Q96B96)
[4] = target: tm239_human TMEM239 (UniProt Q8WW34)
[5] = target: tfp11_human TFIP11 (UniProt Q9UBB9)
[6] = target: tm239_human TMEM239 (UniProt Q8WW34); remark: listed apart in the source
[7] = target: reep6_human REEP6 (UniProt Q96HR9); remark: listed apart in the source
[8] = target: praf1_human RABAC1 (UniProt Q9UI14); remark: listed apart in the source
[9] = target: tfp11_human TFIP11 (UniProt Q9UBB9); remark: listed apart in the source
[10] = target: ldaf1_human LDAF1 (UniProt Q96B96); remark: listed apart in the source
[11] = target: tm239_human TMEM239 (UniProt Q8WW34); remark: listed apart in the source
[12] = target: reep6_human REEP6 (UniProt Q96HR9); remark: listed apart in the source
[13] = target: praf1_human RABAC1 (UniProt Q9UI14); remark: listed apart in the source
[14] = target: atrap_human AGTRAP (UniProt Q6RW13)
[15] = target: tfp11_human TFIP11 (UniProt Q9UBB9); remark: listed apart in the source
[16] = target: ldaf1_human LDAF1 (UniProt Q96B96); remark: listed apart in the source

Chain of tm239_human TMEM239 (Q8WW34 whole entry): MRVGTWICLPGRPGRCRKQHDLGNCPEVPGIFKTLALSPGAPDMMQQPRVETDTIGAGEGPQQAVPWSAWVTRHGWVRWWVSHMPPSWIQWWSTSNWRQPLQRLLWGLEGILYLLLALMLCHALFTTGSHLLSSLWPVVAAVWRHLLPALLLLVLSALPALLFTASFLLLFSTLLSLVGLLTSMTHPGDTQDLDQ
Chain of tfp11_human TFIP11 (Q9UBB9 whole entry): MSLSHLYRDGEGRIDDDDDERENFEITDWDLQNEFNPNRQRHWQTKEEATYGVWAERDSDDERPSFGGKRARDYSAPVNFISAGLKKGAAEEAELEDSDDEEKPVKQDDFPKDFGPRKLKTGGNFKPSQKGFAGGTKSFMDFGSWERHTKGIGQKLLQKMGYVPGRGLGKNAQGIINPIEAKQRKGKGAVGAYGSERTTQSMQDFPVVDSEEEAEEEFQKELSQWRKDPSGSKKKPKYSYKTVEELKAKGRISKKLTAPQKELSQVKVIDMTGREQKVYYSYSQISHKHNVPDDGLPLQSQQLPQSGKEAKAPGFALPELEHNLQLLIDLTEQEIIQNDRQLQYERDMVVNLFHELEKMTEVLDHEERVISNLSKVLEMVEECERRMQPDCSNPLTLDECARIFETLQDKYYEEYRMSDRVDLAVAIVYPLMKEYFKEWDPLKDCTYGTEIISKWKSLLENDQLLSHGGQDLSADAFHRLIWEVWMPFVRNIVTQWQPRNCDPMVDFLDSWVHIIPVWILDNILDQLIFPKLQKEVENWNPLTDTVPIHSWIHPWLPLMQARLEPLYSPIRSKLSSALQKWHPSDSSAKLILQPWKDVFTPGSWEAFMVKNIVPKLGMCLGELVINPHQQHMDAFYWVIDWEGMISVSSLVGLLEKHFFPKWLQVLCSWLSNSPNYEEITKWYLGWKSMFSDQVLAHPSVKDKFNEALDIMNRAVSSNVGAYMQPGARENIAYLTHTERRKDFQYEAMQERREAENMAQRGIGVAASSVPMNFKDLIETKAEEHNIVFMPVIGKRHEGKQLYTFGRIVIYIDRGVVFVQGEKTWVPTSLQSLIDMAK
Chain of reep6_human REEP6 (Q96HR9 whole entry): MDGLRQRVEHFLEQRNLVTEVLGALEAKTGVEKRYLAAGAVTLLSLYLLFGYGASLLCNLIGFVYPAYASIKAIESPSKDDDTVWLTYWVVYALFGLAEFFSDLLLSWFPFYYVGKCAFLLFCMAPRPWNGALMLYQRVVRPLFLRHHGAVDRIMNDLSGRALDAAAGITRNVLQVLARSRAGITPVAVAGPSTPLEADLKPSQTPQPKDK
Chain of ldaf1_human LDAF1 (Q96B96 whole entry): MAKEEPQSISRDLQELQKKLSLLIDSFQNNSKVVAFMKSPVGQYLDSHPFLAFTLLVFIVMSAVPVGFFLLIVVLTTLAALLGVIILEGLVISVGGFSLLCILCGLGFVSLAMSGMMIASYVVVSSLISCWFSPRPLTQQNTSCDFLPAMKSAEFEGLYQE
Chain of praf1_human RABAC1 (Q9UI14 whole entry): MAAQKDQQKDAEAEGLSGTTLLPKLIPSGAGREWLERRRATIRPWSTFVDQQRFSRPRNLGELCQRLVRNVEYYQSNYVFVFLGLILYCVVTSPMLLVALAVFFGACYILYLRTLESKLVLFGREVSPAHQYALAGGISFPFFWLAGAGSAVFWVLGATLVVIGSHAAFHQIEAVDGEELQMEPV
Chain of atrap_human AGTRAP (Q6RW13 whole entry): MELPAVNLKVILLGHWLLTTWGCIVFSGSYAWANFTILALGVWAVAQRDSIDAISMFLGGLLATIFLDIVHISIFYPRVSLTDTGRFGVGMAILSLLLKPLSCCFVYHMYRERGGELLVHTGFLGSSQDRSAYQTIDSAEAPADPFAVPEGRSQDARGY

effect of a mutation on the interaction [1]: disrupting interaction | effect of a mutation on the interaction [2]: disrupting interaction | effect of a mutation on the interaction [3]: disrupting interaction | effect of a mutation on the interaction [4]: disrupting interaction | effect of a mutation on the interaction [5]: disrupting interaction
Substance: Atypical kinase COQ8A, mitochondrial (Homo sapiens), Q8NI60 E551K

effect of a mutation on the interaction [6]: disrupting interaction | effect of a mutation on the interaction [7]: disrupting interaction | effect of a mutation on the interaction [8]: disrupting interaction | effect of a mutation on the interaction [9]: disrupting interaction | effect of a mutation on the interaction [10]: disrupting interaction
Substance: Atypical kinase COQ8A, mitochondrial (Homo sapiens), Q8NI60 G272V

effect of a mutation on the interaction [11]: disrupting interaction | effect of a mutation on the interaction [12]: disrupting interaction | effect of a mutation on the interaction [13]: disrupting interaction | effect of a mutation on the interaction [14]: disrupting interaction | effect of a mutation on the interaction [15]: disrupting interaction | effect of a mutation on the interaction [16]: disrupting interaction
Substance: Atypical kinase COQ8A, mitochondrial (Homo sapiens), Q8NI60 R213W
